{"source": "patent US20250333484A1", "about": "(US Dept. of Health and Human Services, published 2025)", "key": {"[1]": {"biological_target": "T1, 676 aa long full-length GP probe (EBOV glycoprotein) (Ebola virus (EBOV), UniProt Q05320 33-676)", "T1 sequence": "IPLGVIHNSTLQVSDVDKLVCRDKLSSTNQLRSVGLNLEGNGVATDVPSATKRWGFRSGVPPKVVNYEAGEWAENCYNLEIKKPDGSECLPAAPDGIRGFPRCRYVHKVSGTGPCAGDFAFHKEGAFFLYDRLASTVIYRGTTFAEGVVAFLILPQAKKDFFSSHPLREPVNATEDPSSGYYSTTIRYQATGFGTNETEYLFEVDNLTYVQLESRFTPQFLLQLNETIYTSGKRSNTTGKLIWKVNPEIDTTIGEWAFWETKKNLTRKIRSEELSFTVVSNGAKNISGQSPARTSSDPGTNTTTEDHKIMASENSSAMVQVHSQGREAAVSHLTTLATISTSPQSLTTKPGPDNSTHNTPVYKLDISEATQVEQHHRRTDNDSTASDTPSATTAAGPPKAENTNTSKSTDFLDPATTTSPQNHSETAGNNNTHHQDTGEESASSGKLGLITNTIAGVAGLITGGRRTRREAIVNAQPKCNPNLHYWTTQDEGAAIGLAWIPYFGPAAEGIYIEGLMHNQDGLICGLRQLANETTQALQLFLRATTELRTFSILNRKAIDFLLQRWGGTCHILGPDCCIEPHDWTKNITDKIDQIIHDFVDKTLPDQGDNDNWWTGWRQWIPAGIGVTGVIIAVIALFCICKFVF", "assay": "BLI saturation binding, full probe on sensor"}, "[2]": {"biological_target": "T1, 676 aa long full-length GP probe (EBOV …)"}, "[3]": {"biological_target": "T1, 676 aa long full-length GP probe (EBOV …)", "assay": "BLI kinetics on full-length GP with the mAb114 site blocked"}}, "data": [{"binder": "mAb114 (parental IgG) (antibody, V domains shown) VH: EVQLVESGGGLIQPGGSLRLSCAASGFALRMYDMHWVRQTIDKRLEWVSAVGPSGDTYYADSVKGRFAVSRENAKNSLSLQMNSLTAGDTAIYYCVRSDRGVAGLFDSWGQGILVTVSS VL: DIQMTQSPSSLSASVGDRITITCRASQAFDNYVAWYQQRPGKVPKLLISAASALHAGVPSRFSGSGSGTHFTLTISSLQPEDVATYYCQNYNSAPLTFGGGTKVEIKS", "values": [{"measurement": "fold binding response at saturation against A09", "setting": "[1]", "value": 2, "unit": "fold"}]}, {"binder": "BiSp107 (mAb114×A09) CrossMab bispecific IgG (bispecific antibody) heavy 1: not shown light 1: DIQMTQSPSSLSASVGDRITITCRASQAFDNYVAWYQQRPGKVPKLLISAASALHAGVPSRFSGSGSGTHFTLTISSLQPEDVATYYCQNYNSAPLTFGGGTKVEIKSSASTKGPSVFPLAPSSKSTSGGTAALGCLVKDYFPEPVTVSWNSGALTSGVHTFPAVLQSSGLYSLSSVVTVPSSSLGTQTYICNVNHKPSNTKVDKKVEPKSC heavy 2: not shown light 2: SYELTQPPSVSVSPGQTATITCSGDKLGDKYTSWFQQRPGQSPLLVIYQDNKRPSGLPARFSGSNSGNTATLTISGTQAMDEADYLCQVWDSGAVFGGGTKLTVLGQPKAAPSVTLFPPSSEELQANKATLVCLISDFYPGAVTVAWKADSSPVKAGVETTTPSKQSNNKYAASSYLSLTPEQWKSHRSYSCQVTHEGSTVEKTVAPTECS", "values": [{"measurement": "fold difference in binding kinetics against parental Fab", "setting": "[2]", "value": "≤ 3", "unit": "fold"}]}, {"binder": "FabA09 (Fab of parental mAbA09) (Fab, V domains shown) VH: QVQLQESGPGLVKPSETLSLTCVVSGGILSSFYWNWIRQPPGKGLEWIGNIYYSGSPNYNASFQSRVAISVDTSKNQISLNLKSVTAADTAMYYCVRASRAYLWGSYRPTALDLWGQGSLVTVSS VL: SYELTQPPSVSVSPGQTATITCSGDKLGDKYTSWFQQRPGQSPLLVIYQDNKRPSGLPARFSGSNSGNTATLTISGTQAMDEADYLCQVWDSGAVFGGGTKLTVL", "values": [{"measurement": "fold on-rate against BiSp107", "setting": "[3]", "value": 3.4, "unit": "fold"}]}]}
